Measurements: US20250066745A1, “MUTANTS AND USE THEREOF” (BGI SHENZHEN, priority 2021, published 2025)
Several values for one entry are separate records, joined by “and”; a condition that tells them apart may be missing. Identical values can stand only once.

Legend:
[1] = Luminescence activity assay of purified Gaussia luciferase mutants on coelenterazine; type: biochemical; settings: for measured value, CTZ: purified combinatorial mutant, substrate coelenterazine (CTZ); for Measured luminescence intensity (CTZ): purified luciferase 1 μg/mL, 10 μL, 90 μL substrate coelenterazine 100 μM; for Ratio of luminescence intensities of advantageous mutant to wild-type Gaussia luciferase without signal peptide (CTZ): substrate coelenterazine 100 μM, vs no sp Gluc average
Summary of the method: (§1)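 Readout: luminescence intensity, as ratio to signal-peptide-free wild-type enzyme. Enzyme 1 μg/mL, substrate 100 μM stock, 10 μL + 90 μL; buffer 50 mM Tris-HCl pH 8.0, 100 mM NaCl, 0.1% Tween-20.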

[2] = Luminescence activity assay of purified Gaussia luciferase mutants on fluoro-coelenterazine; type: biochemical; settings: for measured value, f-CTZ: purified combinatorial mutant, substrate fluoro-coelenterazine (f-CTZ); for Measured luminescence intensity (f-CTZ): purified luciferase 1 μg/mL, 10 μL, 90 μL substrate fluoro-coelenterazine 100 μM; for Ratio of luminescence intensities of advantageous mutant to wild-type Gaussia luciferase without signal peptide (f-CTZ): substrate fluoro-coelenterazine 100 μM, vs no sp Gluc average
Summary of the method: as §1

[3] = Luminescence activity assay of purified Gaussia luciferase mutants on coelenterazine derivative ZS2; type: biochemical; settings: for measured value, ZS-2: purified combinatorial mutant, substrate coelenterazine derivative ZS2; for ratios of catalytic activities on ZS2 relative to ZS26: substrate specificity, FIG. 10, in words; for Measured luminescence intensity (ZS2): purified luciferase 1 μg/mL, 10 μL, 90 μL substrate ZS2 100 μM; for Ratio of luminescence intensities of advantageous mutant to wild-type Gaussia luciferase without signal peptide (ZS2): substrate ZS2 100 μM, vs no sp Gluc average
Summary of the method: as §1

[4] = Substrate specificity test of combinatorial mutants: activity on coelenterazine derivative ZS26; type: biochemical; settings: for measured value, ZS-26: purified combinatorial mutant, substrate coelenterazine derivative ZS26; for ratio of catalytic activities, ZS2/ZS26 / ratio of catalytic activities, CTZ/ZS26 / ratio of catalytic activities, f-CTZ/ZS26: substrate specificity; for ratio of catalytic activities, ZS2/ZS26: ZS2 relative to ZS26; for ratio of catalytic activities, CTZ/ZS26: coelenterazine relative to ZS26; for ratio of catalytic activities, f-CTZ/ZS26: fluoro-coelenterazine relative to ZS26
Experimental: In this Example, the protein concentration was determined with a BCA quantitative kit (Thermo Scientific™ Pierce™ BCA Protein Assay Kit) accurately. The purified luciferase obtained in Example 5 was diluted with diluent (50 mM Tris-HCl, pH 8.0, 100 mM NaCl, 0.1% (v/v) Tween-20) to 1 μg/mL. The diluted luciferase, taken for 10 μL, was moved into a black 96-well plate, then added with 90 μL of the substrates coelenterazine, fluoro-coelenterazine or coelenterazine derivative ZS2 (purchased from Biolab) which was diluted into 100 μM with the same diluent, and the luminescence intensity of the plate was read with a self-luminescence module of a microplate reader. The mutation site of the mutant, the measured luminescence intensity, the ratio of luminescence intensities of the advantageous mutants to the wild-type Gaussia luciferase without the signal peptide having the sequence shown in SEQ ID NO: 3 are shown in Table 15. The results of catalytic activity assay of the advantageous mutants relative to the wild-type Gaussia luciferase without the signal peptide having the sequence shown in SEQ ID NO: 3 on substrate coelenterazine are shown in FIG. 6. […] The results of catalytic activity assay of the advantageous mutants relative to the wild-type Gaussia luciferase without the signal peptide having the sequence shown in SEQ ID NO: 3 on substrate fluoro-coelenterazine are shown in FIG. 7.
The new mutant library constructed in Example 7 was screened and tested for substrate specificity. Expression and purification schemes were the same as that in Example 5, and the activity assay scheme was the same as that in Example 6. The respective catalytic activities of combinatorial mutants on coelenterazine, fluoro-coelenterazine or coelenterazine derivative ZS2, and coelenterazine derivative ZS26 (purchased from BIOLAB) were assayed, and comparisons among the substrate specificities of the combinatorial mutants were based on the ratios of catalytic activities on two corresponding substrates.

[5] = Activity assay of Gaussia luciferase at bacteria solution level (substrate CTZ); type: cell-based; settings: OrigamiB (DE3) competent cells; 100 μL induced bacteria solution; CTZ final 100 μM; FIG. 4
Experimental: The expression plasmids pET28a-Gluc wt and pCold-no sp Glue obtained in Example 1 were individually transformed into BL21 (DE3) competent cells or OrigamiB (DE3) chemically competent cells (WEIDI BIO, EC1020S) and applied to plate medium. Then single colonies were picked from the plate for culture overnight at 37° C. The cultured clones were diluted at the ratio of 1:100 the next day, and transferred into 3 mL of fresh LB medium with ampicillin at 100 μg/mL, shaked at 37° C., 200 rpm until OD600≈0.5-0.6, followed by cooling on ice for 1 hour. IPTG was added at a final concentration of 1 mM as inducer for induction overnight at 16° C.
The induced bacteria solution, taken for 100 μL, was moved into a black 96-well plate, then added with 100 μL of a substrate CTZ (purchased from BIOLAB) at a final concentration of 100 μM. The luminescence intensity was read with a self-luminescence module of a microplate reader. […] Accordingly, the subsequent experiments were conducted with the Gaussia luciferase without the signal peptide.

Row | Molecule | measured value, CTZ [1] | measured value, f-CTZ [2] | measured value, ZS-2 [3] | ratios of catalytic activities on ZS2 relative to ZS26 [3] | measured value, ZS-26 [4] | ratio of catalytic activities, ZS2/ZS26 [4] | ratio of catalytic activities, CTZ/ZS26 [4] | ratio of catalytic activities, f-CTZ/ZS26 [4] | other results
1 | mutant E1-G12: Gaussia luciferase combinatorial mutant encoded by SEQ ID NO: 42 (protein) MKPTENNEDLNILDIAKNFIETDLDADRGKLPGKKLPLEVLKEMEANARIAGCTRGCLICLSKIKCTLKMKKFIPGRCHTYEGDKSTGQGGIGPAIVDIPEIPGFKDMEPMEQFIAQVDLCEDCTTGCLKGLANVQCSDLLKKWLPQRCATFASKIQGQVDKIKGAGGD | 689624 | 94900 | 401271 | significantly improved | 31521 | 12.73 | 21.87 | 3.01 | –
2 | mutant 4-C12: Gaussia luciferase combinatorial mutant encoded by SEQ ID NO: 43 (protein) MKPTENNEDFNIVAVASNFATTDLDADRGKLPGKKLPLEVLKEMEANARKAGCTRGCLICLSKIKCTPKMKKFIPGRCHTYEGDKSTGQGGIGPAIVDIPEIPGFKDMEPMEQFIAQVDLCEDCTTGCLKGLANVQCSDLLKKWLPQRCATFASKIQGQVDKIKGAGGD | 1675889 | 167522 | 773694 | significantly improved | 64057 | 12.08 | 26.16 | 2.62 | –
3 | no sp Gluc: wild type Gaussia luciferase without signal peptide, having a sequence shown in SEQ ID NO: 3 (protein) KPTENNEDFNIVAVASNFATTDLDADRGKLPGKKLPLEVLKEMEANARKAGCTRGCLICLSHIKCTPKMKKFIPGRCHTYEGDKESAQGGIGEAIVDIPEIPGFKDLEPMEQFIAQVDLCVDCTTGCLKGLANVQCSDLLKKWLPQRCATFASKIQGQVDKIKGAGGD | – | – | – | – | – | – | – | – | luminescence value at bacteria solution level [5]: highest luminescence value; Measured luminescence intensity (CTZ) [1]: 253597 and 276603 and 266322; Measured luminescence intensity (CTZ) ([1]; listed as no sp Gluc average): 265507.3; Ratio of luminescence intensities of advantageous mutant to wild-type Gaussia luciferase without signal peptide (CTZ) [1]: 0.96 and 1.04 and 1; Ratio of luminescence intensities of advantageous mutant to wild-type Gaussia luciferase without signal peptide (CTZ) ([1]; listed as no sp Gluc average): 1; Measured luminescence intensity (f-CTZ) [2]: 5662 and 7198 and 6191; Measured luminescence intensity (f-CTZ) ([2]; listed as no sp Gluc average): 6350.333; Ratio of luminescence intensities of advantageous mutant to wild-type Gaussia luciferase without signal peptide (f-CTZ) [2]: 0.89 and 1.13 and 0.97; Ratio of luminescence intensities of advantageous mutant to wild-type Gaussia luciferase without signal peptide (f-CTZ) ([2]; listed as no sp Gluc average): 1; Measured luminescence intensity (ZS2) [3]: 18344 and 20707 and 22415; Measured luminescence intensity (ZS2) ([3]; listed as no sp Gluc average): 20488.67; Ratio of luminescence intensities of advantageous mutant to wild-type Gaussia luciferase without signal peptide (ZS2) [3]: 0.9 and 1.01 and 1.09; Ratio of luminescence intensities of advantageous mutant to wild-type Gaussia luciferase without signal peptide (ZS2) ([3]; listed as no sp Gluc average): 1
